# Test results: US20140194361A1, “Vault Agents for Treating Chronic Kidney Disease” (priority 2010, published 2014)
# Target: α5β1 integrin receptor on primary mesangial cells
# Experiment: cell-based or functional assay
substance,measurement,value
D-vault (CGRGDSP peptide-INT packaged in purified vault),inhibition of attachment of MC to fibronectin compared to untreated MC,1.7 fold
